The values below are quoted from earlier work in US7999069B2, “EphB receptor-binding peptides” (Sanford-Burnham Medical Research Institute, priority 2005, dated 2011).

As usually defined, the Kd is the equilibrium constant for the complex coming apart.

This series has as its target T1, EphA3 (Homo sapiens, UniProt P29320).
T1 sequence (P29320 21-983): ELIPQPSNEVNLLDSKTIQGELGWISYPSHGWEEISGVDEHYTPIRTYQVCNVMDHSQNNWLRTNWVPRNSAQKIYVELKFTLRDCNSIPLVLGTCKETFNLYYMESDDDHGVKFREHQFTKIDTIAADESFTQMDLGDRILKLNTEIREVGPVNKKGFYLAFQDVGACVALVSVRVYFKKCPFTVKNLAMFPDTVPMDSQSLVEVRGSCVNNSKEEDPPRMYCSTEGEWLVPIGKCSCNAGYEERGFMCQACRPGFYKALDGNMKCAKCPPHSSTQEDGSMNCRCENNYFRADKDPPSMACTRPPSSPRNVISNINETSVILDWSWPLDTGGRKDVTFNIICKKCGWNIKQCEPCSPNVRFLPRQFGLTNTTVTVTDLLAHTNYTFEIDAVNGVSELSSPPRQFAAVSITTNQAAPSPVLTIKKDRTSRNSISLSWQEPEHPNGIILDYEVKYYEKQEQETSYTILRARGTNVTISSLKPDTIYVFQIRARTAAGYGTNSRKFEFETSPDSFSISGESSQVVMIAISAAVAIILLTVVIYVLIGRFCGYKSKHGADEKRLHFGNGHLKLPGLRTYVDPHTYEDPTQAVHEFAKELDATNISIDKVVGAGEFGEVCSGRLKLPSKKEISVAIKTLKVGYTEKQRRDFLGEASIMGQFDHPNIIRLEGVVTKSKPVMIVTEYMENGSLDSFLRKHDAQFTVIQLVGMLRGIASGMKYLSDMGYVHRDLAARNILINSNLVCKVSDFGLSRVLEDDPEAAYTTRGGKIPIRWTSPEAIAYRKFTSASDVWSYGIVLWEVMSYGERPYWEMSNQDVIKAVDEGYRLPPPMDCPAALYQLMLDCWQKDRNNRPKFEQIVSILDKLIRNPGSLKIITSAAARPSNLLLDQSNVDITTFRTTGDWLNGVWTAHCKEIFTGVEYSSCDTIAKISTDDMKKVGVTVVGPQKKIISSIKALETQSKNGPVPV
Conditions: read-out: KD for monovalent EphA3-ephrin-A5 interaction; cited from earlier work.

B1: ephrin-A5: ephrin ligand; monovalent interaction with EphA3, literature KD (protein, UniProt P52803 21-203, looked up)
Ephrin-A5: QDPGSKAVADRYAVYWNSSNPRFQRGDYHIDVCINDYLDVFCPHYEDSVPEDKTERYVLYMVNFDGYSACDHTSKGFKRWECNRPHSPNGPLKFSEKFQLFTPFSLGFEFRPGREYFYISSAIPDNGRRSCLKLKVFVRPTNSCMKTIGVHDRVFDVNDKVENSLEPADDTVHESAEPSRGEN
For B1, the Kd was 10 to 12 nM.
